The RNAGym collection of RNA variant scans (doi:10.1073/pnas.2313332121)
This sample holds only a part of the variants without activity.

B1: TPR 5TU (parent)
chain: GGAUCUUCUCGAUCUAACAAAAAAGACAAAUCUGCCACAAAGCUUGAGAGCAUCUUCGGAUGCAGAGGCGGCAGCCUUCGGUGGCGCGAUAGCGCCAACGUUCUCAACUAUGACACGCAAAACGCGUGCUCCGUUGAAUGGAGUUUAUCAUG

Variants of: B1
Test: polymerase ribozyme fitness, log enrichment relative to wild type (log ratio); higher = more active; in vitro selection for triplet polymerase activity
How it was run: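 For each subunit of a heterodimeric triplet polymerase ribozyme, a mutant library was built by PCR and transcribed, then taken through a single in vitro selection round in triplicate. Selection involved annealing to a biotinylated primer, the partner subunit and triplets, incubation frozen at −7 °C, gel excision of extended constructs, capture on streptavidin beads and RT-PCR. Genotypes were retained after Illumina sequencing of inputs and outputs only with ≥10 input reads and ≥1 read in each output. Fitness is defined as the logarithm of a genotype's enrichment relative to wild-type enrichment, using inverse-variance-weighted averages across replicates, with the logarithm taken to base 2.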

Row | Variant | polymerase ribozyme fitness (log ratio)
1 | GGAUCGUCUCGAUCUAACAAAAAAGACAAAUCUGCCACAAAGCUUGAGAGCACCUUCGGAUGCAGAGGCGGCAGCCUUCGGUGGCGCGAUACCGCCAACGUUCUCAACUAUGACACGCAAAACGCGUGCUCCGUUGAAUGGAGCUUAUCAUG [U6G U53C G92C U144C] | -1.5
2 | GGAUCUUCUCGAUCUAACAAAAAAGACAAAUCUGCCACAAAGCUUGAGAGCAUCUUCGGAGGCAGCGGCGGCAGCCUUCGGUGGCGCGAUAGCGCCAACGUUCUCAACUAUGACACGCAAAACGCGUGCUCCGUUGAAUGGAGUUUAUCGUG [U61G A66C A150G] | ≤ -4.2
3 | GGAUCUUCUCGAUCGAACAAAAAAGACAAAUCUACCACAAAGCUUGAGAGCAUCUUCGGAUGCAGAGGCGGCAGACUUCGGUGGCGCGAUAGCGCCAACGUUCUCAACUAUGACACGCAAAACGCGUGCUCCGUUGAAUGGAGUUUAUCUUG [U15G G34A C75A A150U] | ≤ -4.2
4 | GGAUCUUCUCGAUAUAACAAAAAAGACAAAUCUGCCACAAAGCUUGAGAGCAUCUUCGGAUCCAGAGGCGGCAGCAUUCGGUGGCGAGAUAGCGCCAACGUUCUCAACUAUGACACUCAAAACGCGUGCUCCGUUGCAUGGAGUUGAUCAUG [C14A G62C C76A C87A G117U A137C U146G] | ≤ -4.2
5 | GGAUCUUCUUGAUCUAACAAAAAAGACAAAUCUGCCACAAAGCUUGAGAGCAUCUUCGGAUGCAGAGGCGGCAGCCUUCGGUGGCGCGAUAGAGCCAACGUUCUCAACUAUGACACGCAAAACGCGUGCUCCGUUGAAUGGAGUUUAUCAUG [C10U C93A] | -3.86
6 | GGAUCUUCUCGAUCUAACAAAAAAGACAAAUCUGCCACAAAGCUUGAGUGCAUCUUCGGAUGCAGAGGCGGCAGCCUUCGGUGGCGCGAUAGCGCCAACGUUCUCAACUUUGACACUCAAAACGCGUGCUCCGUUGAAUGGAGUUUAUCAUG [A49U A110U G117U] | ≤ -4.2
7 | GGAUCUUCUCGAUCUAACAAAAAAGACAAAUCUGCCACAAAGCUUGGGAGCCUCUUCGGAUGCAGAGGCGGCAGCCUUCGGUGGCGCGAUAGCGCCUACGUUCUCAACUAUGACACGCAAAACGCGUGCUCCGUUGAAUGGAGUUUAUCAUG [A47G A52C A97U] | -1.2
8 | GGAUCUUCUCGAUCUAACAAAAAAGACAAAUCUGCCAGAAAGCUUGAGAGCAUGUUCGGAUGCAGAGGCGGCAGCGUUCGGUGGCGCGAUAGCGCCAACGUUCUCAUCUAUGACACGCAAAACGCGUGCUCCGUUGAAUGGAGUUGAUCAUG [C38G C54G C76G A107U U146G] | ≤ -4.2
9 | GGAUCUUCUCGAUCUAUCAAAAAAGACAAAUCUGCCACAAAGCUUGAGAGCUUCUUUGGAUGCAGAGGCGGCAGCCUUCGGUGGCGCGAUAGCGCUAUCGUUGUCAACUAUGACACGCAACACGCGUGCUCCGUUGAAUCGAGUUUAUCAUG [A17U A52U C57U C96U A98U C103G A121C G140C] | ≤ -4.2
10 | GGAUCUUCUCGAUCUAACAAAAAAGACAAAUCUGCCACAAAGCUUGAGAGCAUCUUCGGAUGCAGAGCCGGCAGCCUUCGGUGAAGCGAUAGCGCCAACGUUCUCAACUAUGACACGCAAAACGCGUGCUCCGUUGAAUGGAGUUUAUCAUG [G68C G84A C85A] | ≤ -4.2
11 | GGAUCUUCUCGAUCUAGCAUAAAAGACAAAUCUGCCACAAAGCUUGAGAGCAUCUUGGGAUGCAGAGGCGGCAGCCUUCGGUGUCGCGAUAGAGCGAACGUUCUCAACUAUGACACGCUAAACGCGUGCUCCGUUGAAUGAAGUUUAUCAUG [A17G A20U C57G G84U C93A C96G A119U G141A] | ≤ -4.2
12 | GGAUCUUCUCGAUCUAACAAAAAAGACAAAUCUGCCACAAAGCUUGAGAGCAACUUCGGAUGCAGAGGCGGCAGCCUUCGGUGGCGCGAUAGAGCCAACGCUCUCAACUAUGACACGCAAAACGUGUGCUCUGUUGAAUUGAGUUUCUCAUG [U53A C93A U101C C125U C132U G140U A147C] | ≤ -4.2
13 | GGAUCUUCUCGAUCUAACAAAAAAGACAAAUCUGCCACAAAUCUUGAGAGCAUCGUCGAAUGCAGAGGCGGCAGCCUUCGGUGGCGCUAUAGCGCGAGCGUUCUCAACUAUGACACGGAAAACGCGUGCUCCGUUGAAUGGAGUUUAUCAUG [G42U U55G G59A G88U C96G A98G C118G] | ≤ -4.2
14 | GGAUCUUCUCGAUCUAACAAAAAAGACAAGUCUGCCACAAAACUUGAGAGCAUCUUCGGAUGCAGAGGCGGCAGCCUUCGGUGGCGCGAUAGCGCCAACGUUCUCAACUAUGACACGCAAAACGCGUGCUCCGUUGAAUGGAGUUUAUCAUG [A30G G42A] | ≤ -4.2
15 | GGAUCUUUUCGAUCUAACAAAAAAGACAAAUCUGCCACAAAGCUUGAGAGCAUCUUCGGAUGCAGAGGCGGCAGCCUUCGGUUGCGCGAUAGCGCCAACGUUCUCAACUAUGACACGCAAAACGCGUGCUCCGUUGAAUGGAGUUUAUCAUG [C8U G83U] | -3.5
16 | GGAUCUUCUCGAUCUAACAAAAAAGACAAAUCUGCCACAAAUCUUGAGAGCAUCUUCGGAUGCAGAGGCGGCAGCCUUCGGUGGCGCGAUAGCGCCAUCGUGCUCAACUAUGACACGCAUAACGCGUGCUCGGUAGAAUGGAGUUUCUCAUG [G42U A98U U102G A120U C132G U135A A147C] | ≤ -4.2
17 | GGAUCUUCUCGAUCUAACUAAAAAGACAAAUCUGCCACAAAGCUUGAGAGCAUCUUCGGAUGCAGAGGCGGCAGCUUUCGGUGGCGCGAUAGCGCCAACGUUCUCAACUAUGACACGCAAAACGCGUGCUUCGUUGAAUGGAGUUUAUCAUG [A19U C76U C131U] | 0.231
18 | GGAUCUUCUCGAUCUAACAAAAAAGACAAAUCUGCCACAAAGCUUGAGAGCAUCUUCGGAUGCAGAGGAGGCAGCCUUCGGUGGCGCGAUCGCGCCAACGUUCUCAACUAUGACACGCAAAUCGCGUGCUCCGUUGAAUGGCGUUUAUCAUG [C69A A91C A122U A142C] | ≤ -4.2
19 | GGAUCUUCUCGAUCUAACAAAUAAGACAAAUCUGCCACAAAGCUUGAGCGCAUCUUCGGAUGCAGAGGGCGCAGCCUUCGGUGGCGCGAUAGCGCCAACGAUCUCAACUAUGACACGCAAAACGCGUGCUCCGUUGAAUGGAGUUUAUCAUG [A22U A49C C69G G70C U101A] | ≤ -4.2
